Assay results taken from patent US20220332804A1 (CSL INNOVATION, published 2022).

Tests used:
Experiment in all cases: SPR, KD relative to WT C2;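 note: biacore SPR at 37 °C, anti-C2 mAbs captured via immobilised goat anti-human IgG, C2 alanine or serine surface mutants as analytes, 1:1 model fitted, double-referenced sensograms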
[1] = target: T1, human C2 S713A (human, UniProt P06681 21-752)
T1 sequence: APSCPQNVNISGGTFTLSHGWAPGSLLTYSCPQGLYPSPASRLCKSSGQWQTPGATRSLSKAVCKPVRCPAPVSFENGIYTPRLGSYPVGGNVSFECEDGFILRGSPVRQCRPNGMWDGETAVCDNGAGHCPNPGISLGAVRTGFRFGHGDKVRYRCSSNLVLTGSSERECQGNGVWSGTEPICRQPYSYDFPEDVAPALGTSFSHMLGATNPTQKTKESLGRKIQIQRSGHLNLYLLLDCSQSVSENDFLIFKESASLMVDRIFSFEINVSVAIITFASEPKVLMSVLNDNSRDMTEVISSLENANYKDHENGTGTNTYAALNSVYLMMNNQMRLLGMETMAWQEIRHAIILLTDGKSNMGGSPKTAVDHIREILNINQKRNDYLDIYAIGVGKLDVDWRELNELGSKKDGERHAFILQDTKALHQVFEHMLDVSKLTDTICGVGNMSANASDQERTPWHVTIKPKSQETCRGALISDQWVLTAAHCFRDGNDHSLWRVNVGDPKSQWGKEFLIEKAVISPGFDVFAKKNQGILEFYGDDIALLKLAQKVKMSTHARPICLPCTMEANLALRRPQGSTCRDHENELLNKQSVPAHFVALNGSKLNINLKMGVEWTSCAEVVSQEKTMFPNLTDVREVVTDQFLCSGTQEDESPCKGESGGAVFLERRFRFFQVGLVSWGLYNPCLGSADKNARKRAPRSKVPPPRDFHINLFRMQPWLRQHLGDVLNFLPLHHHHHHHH

[2] = target: T2, human C2 M316A (human, UniProt P06681 21-752)
T2 sequence: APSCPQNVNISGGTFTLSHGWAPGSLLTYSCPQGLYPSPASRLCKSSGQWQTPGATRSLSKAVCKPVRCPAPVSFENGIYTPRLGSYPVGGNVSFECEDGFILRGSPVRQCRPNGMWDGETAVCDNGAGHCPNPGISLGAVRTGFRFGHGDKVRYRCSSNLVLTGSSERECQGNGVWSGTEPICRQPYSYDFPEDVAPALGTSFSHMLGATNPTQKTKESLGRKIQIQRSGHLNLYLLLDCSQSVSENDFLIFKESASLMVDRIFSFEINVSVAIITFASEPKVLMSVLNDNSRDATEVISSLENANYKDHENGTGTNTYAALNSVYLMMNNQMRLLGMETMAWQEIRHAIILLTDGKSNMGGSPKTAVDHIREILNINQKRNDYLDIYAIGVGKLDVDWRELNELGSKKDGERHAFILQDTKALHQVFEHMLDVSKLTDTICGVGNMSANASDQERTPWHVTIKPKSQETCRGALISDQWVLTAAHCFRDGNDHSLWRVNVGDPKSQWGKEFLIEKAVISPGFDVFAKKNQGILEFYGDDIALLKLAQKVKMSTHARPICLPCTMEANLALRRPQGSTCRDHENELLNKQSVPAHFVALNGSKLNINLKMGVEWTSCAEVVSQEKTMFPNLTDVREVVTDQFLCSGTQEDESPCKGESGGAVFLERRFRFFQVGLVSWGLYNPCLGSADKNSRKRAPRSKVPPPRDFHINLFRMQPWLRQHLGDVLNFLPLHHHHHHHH

[3] = target: T3, human C2 D417A (human, UniProt P06681 21-752)
T3 sequence: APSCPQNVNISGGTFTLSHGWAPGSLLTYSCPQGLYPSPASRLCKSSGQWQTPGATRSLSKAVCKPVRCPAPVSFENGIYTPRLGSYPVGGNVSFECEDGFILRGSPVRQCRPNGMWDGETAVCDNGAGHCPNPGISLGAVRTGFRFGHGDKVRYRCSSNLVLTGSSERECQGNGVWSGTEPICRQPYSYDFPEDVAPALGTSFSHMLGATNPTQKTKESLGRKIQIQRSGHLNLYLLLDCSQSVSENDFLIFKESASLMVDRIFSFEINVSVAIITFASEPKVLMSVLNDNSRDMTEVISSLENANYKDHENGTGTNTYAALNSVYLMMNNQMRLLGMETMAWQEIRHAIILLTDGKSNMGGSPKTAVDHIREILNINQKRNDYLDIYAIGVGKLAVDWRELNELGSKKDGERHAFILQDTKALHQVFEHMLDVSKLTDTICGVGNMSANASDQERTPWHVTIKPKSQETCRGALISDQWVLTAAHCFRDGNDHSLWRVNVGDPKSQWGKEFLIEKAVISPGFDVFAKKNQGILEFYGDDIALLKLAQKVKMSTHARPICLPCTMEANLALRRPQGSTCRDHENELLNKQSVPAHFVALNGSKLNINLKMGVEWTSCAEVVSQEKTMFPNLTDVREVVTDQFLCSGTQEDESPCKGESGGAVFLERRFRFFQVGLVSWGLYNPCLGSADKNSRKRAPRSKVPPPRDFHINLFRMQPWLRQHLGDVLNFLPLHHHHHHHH

[4] = target: T4, human C2 L439A (human, UniProt P06681 21-752)
T4 sequence: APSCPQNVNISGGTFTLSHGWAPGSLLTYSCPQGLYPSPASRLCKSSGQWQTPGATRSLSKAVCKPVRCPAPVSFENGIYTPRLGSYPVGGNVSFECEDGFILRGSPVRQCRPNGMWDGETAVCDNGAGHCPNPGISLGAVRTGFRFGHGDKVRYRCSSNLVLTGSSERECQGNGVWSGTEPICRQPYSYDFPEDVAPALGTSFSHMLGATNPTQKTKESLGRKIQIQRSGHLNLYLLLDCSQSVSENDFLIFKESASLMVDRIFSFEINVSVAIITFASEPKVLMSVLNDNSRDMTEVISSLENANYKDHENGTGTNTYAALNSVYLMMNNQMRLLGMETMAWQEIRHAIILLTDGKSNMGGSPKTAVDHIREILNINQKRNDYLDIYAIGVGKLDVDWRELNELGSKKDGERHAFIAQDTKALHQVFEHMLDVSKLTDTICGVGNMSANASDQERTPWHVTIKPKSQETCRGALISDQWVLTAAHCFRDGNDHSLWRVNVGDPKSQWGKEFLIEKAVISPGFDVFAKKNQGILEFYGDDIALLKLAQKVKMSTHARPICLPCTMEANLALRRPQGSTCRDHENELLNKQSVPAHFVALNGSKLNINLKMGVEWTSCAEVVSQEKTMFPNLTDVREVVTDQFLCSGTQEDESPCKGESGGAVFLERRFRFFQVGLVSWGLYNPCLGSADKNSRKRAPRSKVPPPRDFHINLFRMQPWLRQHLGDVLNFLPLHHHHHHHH

B1: RF16-226 (antibody, human IgG4 S228P, lambda)
heavy: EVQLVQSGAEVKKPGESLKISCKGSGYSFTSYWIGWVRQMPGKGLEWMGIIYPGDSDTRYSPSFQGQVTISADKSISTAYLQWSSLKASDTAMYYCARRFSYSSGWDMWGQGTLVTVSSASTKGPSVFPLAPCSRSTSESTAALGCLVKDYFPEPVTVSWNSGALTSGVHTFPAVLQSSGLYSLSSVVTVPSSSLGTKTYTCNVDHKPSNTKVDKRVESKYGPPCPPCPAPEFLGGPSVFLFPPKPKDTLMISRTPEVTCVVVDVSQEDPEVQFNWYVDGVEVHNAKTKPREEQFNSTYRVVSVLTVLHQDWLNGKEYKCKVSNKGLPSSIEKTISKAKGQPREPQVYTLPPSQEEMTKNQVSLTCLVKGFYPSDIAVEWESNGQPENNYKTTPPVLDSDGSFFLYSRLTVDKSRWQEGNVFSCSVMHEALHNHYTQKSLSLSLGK
light: SYELTQPPSVSVSPGQTARITCSGDALTSKYVAWYQQKSGLAPLLVIYEDTRRPSGIPAKFSGSSSGSVATLTISGAHGDDEADYYCYSTDASGHQRVFGGGTKLTVLSQPKAAPSVTLFPPSSEELQANKATLVCLISDFYPGAVTVAWKADGSPVKAGVETTKPSKQSNNKYAASSYLSLTPEQWKSHRSYSCQVTHEGSTVEKTVAPTECS
notes: pH-dependent anti-C2 antibody from a phage display library; also called WT
B1 showed a Fold diff [1] of 2 fold, a Fold diff [2] of 1 fold and a Fold diff [3] of 2 fold. For the same binder, the Fold diff [4] was 12 fold.
